This note sets out measurements from the supplement of paper PMC7125110.

The chains are these.
B1: glmS ribozyme (parent)
chain: AUAAAAGCGCCAGAACUACAGAAAUGUAGUUGACGAGGAGGAGGUUUAUCGAAUUUUCGGCGGAUGCCUCCAAA

Common to all, as to settings: with glucosamine-6-phosphate
Series [1] covers variants of B1. Put plainly: kcat; higher = faster cleavage; RNA array. In short, it runs like this: (§1)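 Barcoded ribozyme variants on sequenced MiSeq chips were transcribed in situ by E. coli RNA polymerase and followed at 37 °C through a hybridised Cy3 probe. Glucosamine-6-phosphate at 40 μM to 10 mM in HEPES/KCl/Mg(OAc)2 buffer was flowed in, and tiles were imaged over ~14 h. Signals were normalised to baseline and to non-cleaving reference variants, and per-tile medians were fit to one- or two-exponential decays to give kobs. Weighted Michaelis–Menten fits across concentrations gave kcat and KM.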

The variants in series [2] derive from B1. The series is described as follows: KM; higher = weaker cofactor use; RNA array. In short, it runs like this: as §1
Variants of B1 are the subject of series [3]. Put plainly: self-cleavage kobs at 40 uM GlcN6P; higher = faster cleavage; RNA array. In short, it runs like this: as §1
The variants in series [4] derive from B1. The series is described as follows: self-cleavage kobs at 160 uM GlcN6P; higher = faster cleavage; RNA array. In short, it runs like this:
as §1

Variants of B1 are the subject of series [5]. The series is described as follows: self-cleavage kobs at 640 uM GlcN6P; higher = faster cleavage; RNA array. In outline: as §1
Series [6] covers variants of B1. Put plainly: self-cleavage kobs at 2500 uM GlcN6P; higher = faster cleavage; RNA array. In short, it runs like this: as §1
In series [7] the parent is B1. Put plainly: self-cleavage kobs at 10000 uM GlcN6P; higher = faster cleavage; RNA array. In short, it runs like this:
as §1

± gives the standard error. For some of these results: Fewer inactive variants are shown than the library holds. Some results are limits rather than exact numbers.

For the variant U31G G37U, the kcat (in general, the maximal rate divided by the concentration of active sites) in series [1] is < 1e-05 s⁻¹.
For C11U U30A, the turnover number (kcat) in series [1] turned out to be 0.00152 ± 0.00047 s⁻¹. The KM – broadly, the substrate concentration at which the rate is half of its maximum – in series [2] was 931 ± 450 µM. The “self-cleavage kobs at 40 uM GlcN6P” value in series [3] is 8.01e-05 ± 1.1e-05 s⁻¹. Besides, the “self-cleavage kobs at 160 uM GlcN6P” value in series [4] stood at 0.000252 ± 4.8e-05 s⁻¹. Moreover, in series [5], the “self-cleavage kobs at 640 uM GlcN6P” value amounted to 0.000433 ± 7.8e-05 s⁻¹. The “self-cleavage kobs at 2500 uM GlcN6P” value in series [6] stood at 0.0011 ± 0.00021 s⁻¹. The “self-cleavage kobs at 10000 uM GlcN6P” value in series [7] stood at 0.0018 ± 0.00027 s⁻¹.
Take A14C G41U: the kcat in series [1] came to 0.000291 ± 6.9e-05 s⁻¹. The “self-cleavage kobs at 640 uM GlcN6P” value in series [5] came to 0.000102 ± 1.6e-05 s⁻¹. For the same variant, in series [6], the “self-cleavage kobs at 2500 uM GlcN6P” value worked out at 0.000161 ± 2.2e-05 s⁻¹. For the same variant, the “self-cleavage kobs at 10000 uM GlcN6P” value in series [7] came out at 0.000272 ± 4.2e-05 s⁻¹.
Take A14U U46C: in series [1], the kcat came to 0.00036 ± 8.4e-05 s⁻¹. Besides, the KM in series [2] worked out at 956 ± 430 µM. For the same variant, in series [4], the “self-cleavage kobs at 160 uM GlcN6P” value was found to be 6.29e-05 ± 9.9e-06 s⁻¹. The “self-cleavage kobs at 640 uM GlcN6P” value in series [5] was 0.000126 ± 1.4e-05 s⁻¹. Moreover, the “self-cleavage kobs at 2500 uM GlcN6P” value in series [6] worked out at 0.000395 ± 5.3e-05 s⁻¹. The “self-cleavage kobs at 10000 uM GlcN6P” value in series [7] was found to be 0.000305 ± 4e-05 s⁻¹.
In the case of G40C A52G, in series [1], the kcat was 0.00018 ± 3.1e-05 s⁻¹. The KM in series [2] was 2990 ± 1200 µM. The “self-cleavage kobs at 640 uM GlcN6P” value in series [5] worked out at 2.38e-05 ± 8.1e-06 s⁻¹. Also, the “self-cleavage kobs at 2500 uM GlcN6P” value in series [6] was 0.000102 ± 1.5e-05 s⁻¹. The “self-cleavage kobs at 10000 uM GlcN6P” value in series [7] was found to be 0.000133 ± 1.5e-05 s⁻¹.
A14C U55A: the kcat in series [1] stood at 0.00676 ± 0.0017 s⁻¹. Also, in series [2], the Michaelis-Menten constant (KM) came to 2080 ± 720 µM. Also, in series [3], the “self-cleavage kobs at 40 uM GlcN6P” value was found to be 0.000144 ± 1.6e-05 s⁻¹. For the same variant, the “self-cleavage kobs at 160 uM GlcN6P” value in series [4] worked out at 0.000546 ± 8.1e-05 s⁻¹. Further, the “self-cleavage kobs at 640 uM GlcN6P” value in series [5] was determined as 0.00145 ± 0.00015 s⁻¹. For the same variant, the “self-cleavage kobs at 2500 uM GlcN6P” value in series [6] was determined as 0.0031 ± 0.00043 s⁻¹. The “self-cleavage kobs at 10000 uM GlcN6P” value in series [7] was 0.00734 ± 0.00098 s⁻¹.
On to U30G U69G, for which the kcat in series [1] was 3.4e-05 ± 1.2e-05 s⁻¹. Moreover, the “self-cleavage kobs at 160 uM GlcN6P” value in series [4] amounted to 5.83e-05 ± 1.7e-05 s⁻¹. In addition, the “self-cleavage kobs at 640 uM GlcN6P” value in series [5] was found to be 6.34e-05 ± 1.3e-05 s⁻¹. For the same variant, the “self-cleavage kobs at 2500 uM GlcN6P” value in series [6] was determined as 3.55e-05 ± 8.8e-06 s⁻¹.
As for G38U G66C C71U, the kcat in series [1] was 1.04e-05 ± 1e-06 s⁻¹.
In the case of A14U U54C, the kcat in series [1] came out at 0.00754 ± 0.0024 s⁻¹. Besides, the Michaelis-Menten constant (KM) in series [2] came out at 1830 ± 830 µM. The “self-cleavage kobs at 40 uM GlcN6P” value in series [3] worked out at 0.00021 ± 2.8e-05 s⁻¹. Besides, the “self-cleavage kobs at 160 uM GlcN6P” value in series [4] amounted to 0.000513 ± 8.8e-05 s⁻¹. Besides, the “self-cleavage kobs at 640 uM GlcN6P” value in series [5] came out at 0.00201 ± 0.00026 s⁻¹. For the same variant, in series [6], the “self-cleavage kobs at 2500 uM GlcN6P” value is 0.00338 ± 0.00053 s⁻¹. Further, the “self-cleavage kobs at 10000 uM GlcN6P” value in series [7] turned out to be 0.00856 ± 0.0012 s⁻¹.
Consider U31C U46G, for which the kcat in series [1] came out at 0.000788 ± 0.00029 s⁻¹. In addition, the “self-cleavage kobs at 640 uM GlcN6P” value in series [5] was found to be 0.000198 ± 3.6e-05 s⁻¹. Further, in series [6], the “self-cleavage kobs at 2500 uM GlcN6P” value is 0.000722 ± 0.00013 s⁻¹. Also, in series [7], the “self-cleavage kobs at 10000 uM GlcN6P” value is 0.000568 ± 7.8e-05 s⁻¹.
In the case of G29A U31A, in series [1], the kcat worked out at 0.00193 ± 0.00042 s⁻¹. For the same variant, the Michaelis constant (KM) in series [2] came out at 1110 ± 410 µM. Also, in series [3], the “self-cleavage kobs at 40 uM GlcN6P” value was 6.33e-05 ± 1.9e-05 s⁻¹. In addition, the “self-cleavage kobs at 160 uM GlcN6P” value in series [4] came out at 0.000184 ± 7.5e-05 s⁻¹. Further, the “self-cleavage kobs at 640 uM GlcN6P” value in series [5] came to 0.00109 ± 0.00022 s⁻¹. Moreover, the “self-cleavage kobs at 2500 uM GlcN6P” value in series [6] is 0.00129 ± 0.00029 s⁻¹. In addition, in series [7], the “self-cleavage kobs at 10000 uM GlcN6P” value was 0.00165 ± 0.00037 s⁻¹.
With G29U C68U, in series [1], the kcat came to 0.0008 ± 6.2e-05 s⁻¹. The KM in series [2] is 1710 ± 230 µM. Besides, the “self-cleavage kobs at 40 uM GlcN6P” value in series [3] amounted to 2.51e-05 ± 1e-05 s⁻¹. Also, the “self-cleavage kobs at 160 uM GlcN6P” value in series [4] turned out to be 6.87e-05 ± 1e-05 s⁻¹. Further, in series [5], the “self-cleavage kobs at 640 uM GlcN6P” value came to 0.00022 ± 2.5e-05 s⁻¹. For the same variant, the “self-cleavage kobs at 2500 uM GlcN6P” value in series [6] is 0.000435 ± 5.5e-05 s⁻¹. Also, the “self-cleavage kobs at 10000 uM GlcN6P” value in series [7] stood at 0.000719 ± 7.8e-05 s⁻¹.
Consider U54C U65G, for which, in series [1], the catalytic constant (kcat) came to 0.00585 ± 0.0014 s⁻¹. Also, in series [2], the KM is 5410 ± 1800 µM. The “self-cleavage kobs at 40 uM GlcN6P” value in series [3] came out at 5.43e-05 ± 8.6e-06 s⁻¹. Also, the “self-cleavage kobs at 160 uM GlcN6P” value in series [4] is 0.000122 ± 2.6e-05 s⁻¹. Further, in series [5], the “self-cleavage kobs at 640 uM GlcN6P” value was found to be 0.000671 ± 0.00011 s⁻¹. For the same variant, in series [6], the “self-cleavage kobs at 2500 uM GlcN6P” value amounted to 0.00207 ± 0.00032 s⁻¹. Besides, in series [7], the “self-cleavage kobs at 10000 uM GlcN6P” value is 0.00371 ± 0.00042 s⁻¹.
For the variant A14C G32A, the kcat in series [1] came out at 0.00779 ± 0.0028 s⁻¹. Further, the “self-cleavage kobs at 40 uM GlcN6P” value in series [3] is 0.000121 ± 2.5e-05 s⁻¹. Also, the “self-cleavage kobs at 160 uM GlcN6P” value in series [4] was 0.000388 ± 0.00011 s⁻¹. The “self-cleavage kobs at 640 uM GlcN6P” value in series [5] came out at 0.0014 ± 0.00034 s⁻¹. The “self-cleavage kobs at 2500 uM GlcN6P” value in series [6] was 0.00183 ± 0.00065 s⁻¹. The “self-cleavage kobs at 10000 uM GlcN6P” value in series [7] is 0.00702 ± 0.00097 s⁻¹.
